In patent US20060263802A1 (CRUCELL HOLLAND B V, published 2006):

Columns and labels:
Test in all cases: PEPSCAN ELISA, looped 15-mer, 10 ug/ml
[1] = target: looped peptide … (rabies virus strain ERA)
[2] = target: looped peptide … (rabies virus strain ERA); remark: listed apart in the source
[3] = target: looped peptide … (rabies virus strain ERA); remark: listed apart in the source
[4] = target: looped peptide … (rabies virus strain ERA); remark: listed apart in the source
[5] = target: looped peptide … (rabies virus strain ERA); remark: listed apart in the source
[6] = target: looped peptide … (rabies virus strain ERA); remark: listed apart in the source
[7] = target: looped peptide … (rabies virus strain ERA); remark: listed apart in the source
[8] = target: looped peptide … (rabies virus strain ERA); remark: listed apart in the source
[9] = target: looped peptide … (rabies virus strain ERA); remark: listed apart in the source
[10] = target: looped peptide … (rabies virus strain ERA); remark: listed apart in the source
[11] = target: looped peptide … (rabies virus strain ERA); remark: listed apart in the source
[12] = target: looped peptide … (rabies virus strain ERA); remark: listed apart in the source
[13] = target: looped peptide … (rabies virus strain ERA); remark: listed apart in the source
[14] = target: looped peptide … (rabies virus strain ERA); remark: listed apart in the source
[15] = target: looped peptide … (rabies virus strain ERA); remark: listed apart in the source
[16] = target: looped peptide … (rabies virus strain ERA); remark: listed apart in the source
[17] = target: looped peptide … (rabies virus strain ERA); remark: listed apart in the source
[18] = target: looped peptide … (rabies virus strain ERA); remark: listed apart in the source
[19] = target: looped peptide … (rabies virus strain ERA); remark: listed apart in the source
[20] = target: looped peptide … (rabies virus strain ERA); remark: listed apart in the source
[21] = target: looped peptide … (rabies virus strain ERA); remark: listed apart in the source
[22] = target: looped peptide … (rabies virus strain ERA); remark: listed apart in the source
[23] = target: looped peptide … (rabies virus strain ERA); remark: listed apart in the source
[24] = target: looped peptide … (rabies virus strain ERA); remark: listed apart in the source
[25] = target: looped peptide … (rabies virus strain ERA); remark: listed apart in the source
[26] = target: looped peptide … (rabies virus strain ERA); remark: listed apart in the source
[27] = target: looped peptide … (rabies virus strain ERA); remark: listed apart in the source
[28] = target: looped peptide … (rabies virus strain ERA); remark: listed apart in the source
[29] = target: looped peptide … (rabies virus strain ERA); remark: listed apart in the source
[30] = target: looped peptide … (rabies virus strain ERA); remark: listed apart in the source
[31] = target: looped peptide … (rabies virus strain ERA); remark: listed apart in the source
[32] = target: looped peptide … (rabies virus strain ERA); remark: listed apart in the source
[33] = target: looped peptide … (rabies virus strain ERA); remark: listed apart in the source
[34] = target: looped peptide … (rabies virus strain ERA); remark: listed apart in the source
[35] = target: looped peptide … (rabies virus strain ERA); remark: listed apart in the source
[36] = target: looped peptide … (rabies virus strain ERA); remark: listed apart in the source
[37] = target: looped peptide … (rabies virus strain ERA); remark: listed apart in the source
[38] = target: looped peptide … (rabies virus strain ERA); remark: listed apart in the source
[39] = target: looped peptide … (rabies virus strain ERA); remark: listed apart in the source
[40] = target: looped peptide … (rabies virus strain ERA); remark: listed apart in the source
[41] = target: looped peptide … (rabies virus strain ERA); remark: listed apart in the source
[42] = target: looped peptide … (rabies virus strain ERA); remark: listed apart in the source
[43] = target: looped peptide … (rabies virus strain ERA); remark: listed apart in the source
[44] = target: looped peptide … (rabies virus strain ERA); remark: listed apart in the source
[45] = target: looped peptide … (rabies virus strain ERA); remark: listed apart in the source
[46] = target: looped peptide … (rabies virus strain ERA); remark: listed apart in the source
[47] = target: looped peptide … (rabies virus strain ERA); remark: listed apart in the source
[48] = target: looped peptide … (rabies virus strain ERA); remark: listed apart in the source
[49] = target: looped peptide … (rabies virus strain ERA); remark: listed apart in the source
[50] = target: looped peptide … (rabies virus strain ERA); remark: listed apart in the source
[51] = target: looped peptide … (rabies virus strain ERA); remark: listed apart in the source
[52] = target: looped peptide … (rabies virus strain ERA); remark: listed apart in the source
[53] = target: looped peptide … (rabies virus strain ERA); remark: listed apart in the source
[54] = target: looped peptide … (rabies virus strain ERA); remark: listed apart in the source
[55] = target: looped peptide … (rabies virus strain ERA); remark: listed apart in the source
[56] = target: looped peptide … (rabies virus strain ERA); remark: listed apart in the source
[57] = target: looped peptide … (rabies virus strain ERA); remark: listed apart in the source
[58] = target: looped peptide … (rabies virus strain ERA); remark: listed apart in the source
[59] = target: looped peptide … (rabies virus strain ERA); remark: listed apart in the source
[60] = target: looped peptide … (rabies virus strain ERA); remark: listed apart in the source
[61] = target: looped peptide … (rabies virus strain ERA); remark: listed apart in the source
[62] = target: looped peptide … (rabies virus strain ERA); remark: listed apart in the source
[63] = target: looped peptide … (rabies virus strain ERA); remark: listed apart in the source
[64] = target: looped peptide … (rabies virus strain ERA); remark: listed apart in the source
[65] = target: looped peptide … (rabies virus strain ERA); remark: listed apart in the source
[66] = target: looped peptide … (rabies virus strain ERA); remark: listed apart in the source
[67] = target: looped peptide … (rabies virus strain ERA); remark: listed apart in the source

B1: human monoclonal antibody CRJB (antibody, V domains shown)
VH: QITLKETGPTLVKPTQTLTLTCTFSGFSLSTSGVGVGWIRQPPGKALEWVTLIYWDDDKRYSPSLENRVTIRKDTSKNQVALTMTNMDPLDTGTYYCAHRQHISSFPWFDSWGQGTLVTVSS
VL: SYVLTQPPSVSVAPGKTARINCGGNNIEYRSVHWYQQKSGQAPVAVIYDNSDRPSGIPERFSGSKSGNTATLTISRVEAGDEADYYCQVWDISSDVVFGGGTKLTVLG
[1]
  OD value: 77
[2]
  OD value: 97
[3]
  OD value: 96
[4]
  OD value: 5
[5]
  OD value: 104
[6]
  OD value: 88
[7]
  OD value: 71
[8]
  OD value: 71
[9]
  OD value: 72
[10]
  OD value: 55
[11]
  OD value: 79
[12]
  OD value: 42
[13]
  OD value: 123
[14]
  OD value: 96
[15]
  OD value: 79
[16]
  OD value: 90
[17]
  OD value: 74
[18]
  OD value: 79
[19]
  OD value: 90
[20]
  OD value: 79
[21]
  OD value: 111
[22]
  OD value: 58
[23]
  OD value: 58
[24]
  OD value: 106
[25]
  OD value: 68
[26]
  OD value: 82
[27]
  OD value: 82
[28]
  OD value: 70
[29]
  OD value: 77
[30]
  OD value: 99
[31]
  OD value: 57
[32]
  OD value: 80
[33]
  OD value: 74
[34]
  OD value: 94
[35]
  OD value: 90
[36]
  OD value: 78
[37]
  OD value: 97
[38]
  OD value: 106
[39]
  OD value: 105
[40]
  OD value: 66
[41]
  OD value: 94
[42]
  OD value: 112
[43]
  OD value: 78
[44]
  OD value: 85
[45]
  OD value: 89
[46]
  OD value: 54
[47]
  OD value: 78
[48]
  OD value: 76
[49]
  OD value: 2
[50]
  OD value: 61
[51]
  OD value: 80
[52]
  OD value: 86
[53]
  OD value: 83
[54]
  OD value: 87
[55]
  OD value: 98
[56]
  OD value: 56
[57]
  OD value: 48
[58]
  OD value: 91
[59]
  OD value: 123
[60]
  OD value: 86
[61]
  OD value: 8
[62]
  OD value: 82
[63]
  OD value: 44
[64]
  OD value: 71
[65]
  OD value: 76
[66]
  OD value: 58
[67]
  OD value: 68
